Consider six molecules from US20200002421A1, “ANTI-B7-H3 ANTIBODIES AND ANTIBODY DRUG CONJUGATES” (AbbVie Inc., priority 2016, published 2020).

In one data set the test system is HCC38 cell line. Nature of the data set: In vitro cell viability assay (CellTiter-Glo), HCC38. In kind it is cell-based, human. Conditions: conjugated to synthon CZ. The method, then: The tumor cell lines HCC38 (breast cancer), NCI-H1650 (NSCLC) and NCI-H847 (small cell lung cancer cell line) were obtained from American Type Culture Collection (ATCC). Cells were grown in 96-well culture plates using recommended growth media overnight at a density of 5×10^3 (HCC38) or 20×10^3 (NCI-H847) or 40×10^3 (NCI-H1650) per well. The following day, treatments were added in fresh media to triplicate wells. Cellular viability was determined 5 days later using the CellTiter-Glo Luminescent Cell Viability Assay kit (Promega), as directed in the manufacturer's protocol. Cell viability was assessed as percentage of control untreated cells.
On the technique in general: Cellular ATP, detected with luciferase, serves as a proxy for viable cell number.

Data set [1] is described as follows: Conjugation observation (precipitation after conjugation, Method A). It counts as physicochemical. Conditions: conjugated to synthon CZ. The method, then:
Table 6 provides cell surface binding and cytotoxicity activity of anti-B7-H3 chimera ADCs against breast cancer cell HCC38 expressing human B7-H3.
A solution of Bond-Breaker™ tris(2-carboxyethyl)phosphine (TCEP) solution (10 mM, 0.017 mL) was added to a solution of antibody (10 mg/mL, 1 mL) preheated to 37° C. The reaction mixture was kept at 37° C. for 1 hour. The solution of reduced antibody was added to a solution of synthon (3.3 mM, 0.160 mL in DMSO) and gently mixed for 30 minutes. The reaction solution was loaded onto a desalting column (PD10, washed with Dulbecco's phosphate-buffered saline [DPBS] 3× before use), followed by DPBS (3 mL). The purified ADC solution was filtered through a 0.2 micron, low protein-binding 13 mm syringe-filter and stored at 4° C.

For another data set, the target named is T1, huB7-H3 (Homo sapiens, UniProt Q5ZPR3).
T1 construct: His tag (6xHis) (C)
T1 sequence (Q5ZPR3 with tags, fused parts or gaps): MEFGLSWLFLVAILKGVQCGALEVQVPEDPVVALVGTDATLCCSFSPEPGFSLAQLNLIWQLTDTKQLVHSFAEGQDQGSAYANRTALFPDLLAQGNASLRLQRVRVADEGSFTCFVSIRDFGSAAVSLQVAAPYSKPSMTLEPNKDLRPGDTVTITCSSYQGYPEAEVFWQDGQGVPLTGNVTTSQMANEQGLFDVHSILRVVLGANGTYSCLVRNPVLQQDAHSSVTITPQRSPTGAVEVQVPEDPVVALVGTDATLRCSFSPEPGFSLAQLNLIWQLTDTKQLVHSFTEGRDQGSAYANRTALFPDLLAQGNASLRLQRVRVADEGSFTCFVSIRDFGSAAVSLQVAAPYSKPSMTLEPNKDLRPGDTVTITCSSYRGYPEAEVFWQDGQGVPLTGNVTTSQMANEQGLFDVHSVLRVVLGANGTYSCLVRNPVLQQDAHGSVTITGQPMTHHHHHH
Nature of the data set: Biacore T200 SPR binding kinetics, mAb capture. Conditions: Table 3. As for the experimental part:
The binding affinity of the purified anti-B7-H3 monoclonal antibodies was determined by surface […]. […] The binding kinetics were derived from SPR measurements using a Biacore T200 instrument and a mAb capture approach (as described in the materials and methods below).
Biacore T200 SPR instruments were used to measure the binding kinetics of human B7-H3 (4Ig-B7-H3 variant) (analyte) binding to various mAbs (ligands). The assay format was Fc-based capture via immobilized anti-mouse (Fc) (Pierce 31170) or immobilized anti-human (Fc) (Pierce 31125). A standard amine coupling protocol was employed to immobilize the capture reagents via primary amines to the carboxy-methyl (CM) dextran surface of CM5 sensorchips (Biacore); capture antibodies were coupled to a level of approximately 5000 RU. For binding kinetic measurements the assay buffer was HBS-EP+(Biacore): 10 mM Hepes, pH7.4, 150 mM NaCl, 3 mM EDTA, 0.05% polysorbate 20. During the assay, all measurements were referenced against the capture surface alone. Each assay cycle consisted of the following steps: 1) Capture of ligand to approximately 50 RU; 2) Analyte injection over both reference and test surface, 240 μL at 80 μL/min, after which the dissociation was monitored for 900 seconds at 80 μL/min; 3) Regeneration of capture surface with low pH glycine. For kinetic determinations analyte injections were 3-point, 9-fold dilution series of 900 nM, 100 nM and 11.11 nM, buffer only injections were included for secondary referencing. Data were processed and fit to a 1:1 binding model using Biacore T200 Evaluation Software to determine the binding kinetic rate constants, ka (on-rate) and kd (off-rate), and the equilibrium dissociation constant (affinity, KD).

A further data set deals with T2, human B7-H3 (Homo sapiens, UniProt Q5ZPR3).
T2 construct: His tag (6xHis) (C)
T2 sequence (Q5ZPR3 with tags, fused parts or gaps): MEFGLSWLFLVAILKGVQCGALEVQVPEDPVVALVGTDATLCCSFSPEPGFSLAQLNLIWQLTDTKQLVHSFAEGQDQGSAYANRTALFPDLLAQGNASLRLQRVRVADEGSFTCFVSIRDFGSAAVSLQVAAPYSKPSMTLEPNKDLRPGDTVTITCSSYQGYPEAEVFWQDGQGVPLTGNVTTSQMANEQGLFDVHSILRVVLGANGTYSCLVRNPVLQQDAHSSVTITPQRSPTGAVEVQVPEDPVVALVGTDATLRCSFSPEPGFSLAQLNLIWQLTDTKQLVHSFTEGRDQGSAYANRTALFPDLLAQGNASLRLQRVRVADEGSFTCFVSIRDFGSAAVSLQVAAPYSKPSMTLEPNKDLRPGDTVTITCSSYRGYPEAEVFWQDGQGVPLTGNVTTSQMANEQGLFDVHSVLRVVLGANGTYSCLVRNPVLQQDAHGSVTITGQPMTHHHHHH
Nature of the data set: Epitope grouping by pair-wise Biacore SPR binding. Particulars: simultaneous binding assay, FIG. 1. The text has this: Pair-wise binding assays performed on Biacore T200 SPR instruments were used to determine the relative epitope grouping for the murine anti-B7-H3 mAbs as described in the methods below. […] Epitope groups are represented as individual ovals, some of which overlap with each other. Antibodies in different epitope groups can bind to B7-H3 simultaneously and likely bind to different epitopes while antibodies within a given epitope group cannot bind to B7-H3 simultaneously and likely bind to overlapping epitopes. The grouping information was derived from a simultaneous binding assay as described in materials and methods. Ab3, Ab4, Ab5, Abl 1, Ab12, and Ab8 groupings were ambiguous
Pair-wise binding assays performed on Biacore T200 SPR instruments were used to determine the relative epitope grouping for a series of anti-B7-H3 mAbs. The assay format was Fc-based capture via immobilized anti-mouse (Fc) (Pierce 31170) or immobilized anti-human (Fc) (Pierce 31125). A standard amine coupling protocol was employed to immobilize the capture reagents via primary amines to the carboxy-methyl (CM) dextran surface of CM5 sensorchips (Biacore); capture antibodies were coupled to a level of approximately 2000 RU. Epitope grouping measurements were done at 12° C. (low temperature allows for grouping information on fast off-rate mAbs), the assay buffer was HBS-EP+(Biacore): 10 mM Hepes, pH7.4, 150 mM NaCl, 3 mM EDTA, 0.05% polysorbate 20. Each assay cycle consisted of the following steps in a four flowcell system: 1) separate test mAbs were captured in flowcells 2, 3 & 4 (flowcell 1 was reference, no test mAb); 2) all 4 flowcells were then blocked by injection with isotype control mAb or isotype mAb cocktail at 50 μg/mL; 3) all 4 flowcells were then injected with antigen or buffer only (buffer only is for double referencing, done for each mAb pair individually); 4) all 4 flowcells were then injected with 2nd test mAb at 10 μg/mL; 5) all 4 flowcells were then regenerated with glycine, pH1.5. The assay was done for each test mAb pair in reciprocal orientations. Simultaneous binding was evaluated examining the ratio of the 2nd test mAb response to the Ag response (RUmAb2/RUAg); if this ratio was equal to or greater than 0.2 the interaction was scored as a simultaneous binder. From this pair-wise binding assay data a “venn” style diagram was constructed manually to depict relative epitope groupings.

B1: chAb6: chimeric anti-B7-H3 antibody huIgG1/k, parental hybridoma Ab6; VH SEQ ID NO: 56, VL SEQ ID NO: 60 (antibody, V domains shown)
VH: QVQLQQSGAELMKPGASVKISCKATGYTFSRYWIEWVKQRPGHGLEWIGEILPGSGSTNYNEKFKGKATFTADTSSNTAYMQVSSLTSEDSAVHYCARRGYGYVPYALDYWGQGTSVTVSS
VL: EIQMTQTTSSLSASLGDRVTISCRASQDISNSLNWYQQKPDGTVNLLIYYTSRLYSGVPSRFSGSGSGTDYSLTISNLEQEDIATYFCQQGNTLPYTFGGGTKLEIK
modifications: human IgG1/kappa constant regions; Synthetic chAb6 VH amino acid sequence; Synthetic chAb6 VL amino acid sequence
For the molecule B1, the “cytotoxicity in cells expressing human B7-H3 / HCC38 cell line (in words)” value with HCC38 cell line is on record as “weak cytotoxicity”. The “precipitation following conjugation to synthon CZ (in words)” value (from here on “precipitation following conjugation”) in data set [1] is “precipitated”.

B2: chAb16: chimeric anti-B7-H3 antibody huIgG1/k, parental hybridoma Ab16; VH SEQ ID NO: 72, VL SEQ ID NO: 76 (antibody, V domains shown)
VH: EVKLLESGGGLVQPGGSLKLSCAASGFDFSRYWMSWVRQAPGKGLEWIGEINPDSSTINYTPSLKDKFIISRDNAKNTLYLQMSKVRSEDTALYYCARPGFGNYIYAMDYWGQGTSVTVSS
VL: DIQMTQTTSSLSASLGDRVTINCRASQDISNFLNWYQQKPDGTVKLLIYYTSRLYLGVPSRFSGSGSGTDYSLTISNLEQEDIATYFCQQGNTLPPTFGGGTKLEIK
modifications: human IgG1/kappa constant regions; Synthetic chAb16 VH amino acid sequence; Synthetic chAb16 VL amino acid sequence
Consider B2, for which the “cytotoxicity in cells expressing human B7-H3 / HCC38 cell line (in words)” value with HCC38 cell line is given as “weak cytotoxicity”. The “precipitation following conjugation” value in data set [1] is listed as “precipitated”.

B3: Ab12: mouse hybridoma anti-B7-H3 monoclonal antibody, mouse IgG1/k (antibody, V domains shown)
VH: EVQLVESGGGLVKPGGSLKLSCAASGFTFSSYAMSWVRQTPEKRLEWVATISSGTNYTYYPDSVKGRFTISRDNAKNTLYLQMTSLRSEDTAMYYCARQGRYSWIAYWGQGTLVTVSA
VL: DIVLTQSPASLAVSLGQRATISCRASKSVSTSDYSYMHWNQQKPGQPPKLLIYLASNLESGVPARFSGSGSGTDFTLNIHPVEEEDAATYYCQHSRELLTFGAGTKLELK
For B3, the “huB7-H3 ka(1/Ms)” value in the data set with huB7-H3 stood at 38000 M⁻¹ s⁻¹. Moreover, in the data set with human B7-H3, the epitope grouping result is given as “ambiguous”.

B4: chAb2: chimeric anti-B7-H3 antibody huIgG1/k, parental hybridoma Ab2; VH SEQ ID NO: 1, VL SEQ ID NO: 5 (antibody, V domains shown)
VH: QVQLQQPGAELVKPGASVKLSCKASGYTFTSYWMHWVKQRPGQGLEWIGMIHPDSGTTNYNEKFRSKATLTVDKSSSTAYMQLSSLTSEDSAVYYCAVYYGSTYWYFDVWGTGTTVTVSS
VL: DVVMTQTPLSLPVSLGDQAYISCRSSQSLVHINGNTYLHWYRQKPGQSPKLLIYKVSNRFSGVPDRFSGSGSGTDFTLKISRVEAEDLGVYFCSQSTHFPFTFGSGTKLEIK
modifications: human IgG1/kappa constant regions; Synthetic chAb2 VH amino acid sequence; Synthetic chAb2 VL amino acid sequence
In the case of B4, the “cytotoxicity in cells expressing human B7-H3 / HCC38 cell line (in words)” value in the data set on HCC38 cell line is recorded as “weak cytotoxicity”. Besides, the “precipitation following conjugation” value in data set [1] is recorded as “precipitated”.

B5: Ab11: mouse hybridoma anti-B7-H3 monoclonal antibody, mouse IgG1/k (antibody, V domains shown)
VH: EVKLVESGGGLVQPGGSLRLSCATSGFTFTNYYMSWVRQPPGKALEWLGFIRNKANDYTTEYSASVKGRFTISRDNSQSILYLQMNTLRAEDSATYYCARESPGNPFAYWGQGTLVTVSA
VL: DIVMTQSPSSLTVTAGEKVTMTCKSSQSLLNSGTQKNFLTWYQQKPGQPPKLLIYWASTRESGVPDRFTGSGSGTDFTLTISSVQAEDLAVYFCQNDYIYPLTFGAGTKLELK
For B5, the “huB7-H3 ka(1/Ms)” value with huB7-H3 was found to be 20000 M⁻¹ s⁻¹. In the data set with human B7-H3, the epitope grouping result was “ambiguous”.

B6: Ab8: mouse hybridoma anti-B7-H3 monoclonal antibody, mouse IgG1/k (antibody, V domains shown)
VH: EVKLVESGGGLVKPGGSLKLSCAASGFTFSSYGMSWVRQTPEKRLEWVATISGGGNYTYCPDSVKGRFTISRDNAKNNLYLQMSSLRSEDTALYYCTRQRGYDYHYAMDFWGQGTSVTVSS
VL: DIQMTQSPASLSVSVGETVTITCRASENIYSNLAWHQQKQGKSPQLLVYAATNLADGVPSRFSGNGSDTQYSLKINSLQSEDFGSYFCQNFWGTSWTFGGGTKLEIK
For the molecule B6, the “huB7-H3 ka(1/Ms)” value in the data set with huB7-H3 came out at 58000 M⁻¹ s⁻¹. For the same molecule, the epitope grouping entry in the data set with human B7-H3 is listed as “ambiguous”.
